Patent US20060083685 (published 2006)
Square brackets hold non-standard residues; d marks the D form. Ends that are not written are not given here.

T1: mu opioid receptor (rat, UniProt P33535)
T1 chain: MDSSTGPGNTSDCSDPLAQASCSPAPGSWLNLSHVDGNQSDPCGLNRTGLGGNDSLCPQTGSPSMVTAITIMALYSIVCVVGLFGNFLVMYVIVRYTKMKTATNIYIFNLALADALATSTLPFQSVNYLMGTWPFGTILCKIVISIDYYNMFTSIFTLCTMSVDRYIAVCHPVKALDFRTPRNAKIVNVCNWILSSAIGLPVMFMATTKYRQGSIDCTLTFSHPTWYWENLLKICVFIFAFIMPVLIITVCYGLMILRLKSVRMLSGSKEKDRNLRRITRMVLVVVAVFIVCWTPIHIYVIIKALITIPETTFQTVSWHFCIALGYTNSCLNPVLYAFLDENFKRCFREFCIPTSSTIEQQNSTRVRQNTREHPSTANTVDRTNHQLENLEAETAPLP

T2: delta opioid receptor (rat, UniProt P33533)
T2 chain: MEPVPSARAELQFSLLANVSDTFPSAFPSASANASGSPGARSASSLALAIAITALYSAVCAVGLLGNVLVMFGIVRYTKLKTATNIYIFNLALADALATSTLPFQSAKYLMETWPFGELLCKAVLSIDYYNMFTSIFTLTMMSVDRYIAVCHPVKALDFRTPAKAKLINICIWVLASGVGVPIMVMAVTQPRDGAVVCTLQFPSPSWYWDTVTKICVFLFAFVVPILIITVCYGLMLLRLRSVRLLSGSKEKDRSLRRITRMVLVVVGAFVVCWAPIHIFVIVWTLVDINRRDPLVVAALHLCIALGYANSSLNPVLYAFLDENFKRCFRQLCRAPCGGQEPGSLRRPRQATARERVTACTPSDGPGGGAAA


Key:
mu opioid receptor = target: T1, mu opioid receptor; assay: competition, radioligand, 25C
delta opioid receptor = target: T2, delta opioid receptor; assay: competition, radioligand, 25C

Row | Binder | binding result (mu opioid receptor) | binding result (delta opioid receptor)
1 | YG[dF]C-NH2 (also: rhenium complex) [Tyr-Gly-D-Phe-Cys-NH2] | no binding | no binding
2 | YC[dF]G-NH2 (also: rhenium complex) [Tyr-Cys-D-Phe-Gly-NH2] | no binding | no binding
